# System: Escherichia coli TOP10
# Assay: shrunken log2 fold change of peptide-encoding DNA abundance (4.5 h post-induction vs induction); higher = less antimicrobial activity (less host growth inhibition)
# Conditions: time post-induction: 4.5 h; library: site-saturation at positions 5, 18, 19, 20
# 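Further: peptides expressed intracellularly from a pBAD plasmid library in pooled LB shake-flask culture, induced with 0.3% L-arabinose, DNA abundance read by NGS, three biological replicates, DESeq2 with apeglm shrinkage.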
row,Sequence,shrunken log2 fold change
1,RRIRMRPPRLPRPRPRPVFFPRP,0.207
2,RRIRQRPPRLPRPRPRPFLYPRP,-0.615
3,RRIRERPPRLPRPRPRPLSWPRP,0.04
4,RRIRYRPPRLPRPRPRPSHFPRP,-0.411
5,RRIRSRPPRLPRPRPRPTFDPRP,0.0254
6,RRIRVRPPRLPRPRPRPGTWPRP,-0.0352
7,RRIRSRPPRLPRPRPRPHKIPRP,-0.48
8,RRIRHRPPRLPRPRPRPVVCPRP,-0.184
9,RRIRGRPPRLPRPRPRPHMCPRP,-0.01
10,RRIRHRPPRLPRPRPRPVWFPRP,0.0927
11,RRIRFRPPRLPRPRPRPETGPRP,0.0907
12,RRIRIRPPRLPRPRPRPLRIPRP,-0.346
13,RRIRLRPPRLPRPRPRPELRPRP,0.214
14,RRIRCRPPRLPRPRPRPPQCPRP,0.182
15,RRIRQRPPRLPRPRPRPQWFPRP,0.0435
16,RRIRYRPPRLPRPRPRPTKAPRP,-0.0298
17,RRIRLRPPRLPRPRPRPIYAPRP,0.111
18,RRIRQRPPRLPRPRPRPCFPPRP,0.121
19,RRIRARPPRLPRPRPRPAFLPRP,0.486
20,RRIRERPPRLPRPRPRPRKTPRP,0.318
21,RRIRPRPPRLPRPRPRPQKFPRP,-0.178
22,RRIRNRPPRLPRPRPRPQMGPRP,0.102
23,RRIRSRPPRLPRPRPRPTDRPRP,0.000994
24,RRIRRRPPRLPRPRPRPTTEPRP,0.0681
25,RRIRARPPRLPRPRPRPCDMPRP,0.208

row,Sequence,shrunken log2 fold change
1,RRIRYRPPRLPRPRPRPSIGPRP,-0.0122
2,RRIRFRPPRLPRPRPRPRFWPRP,0.317
3,RRIRLRPPRLPRPRPRPMPQPRP,0.164
4,RRIRGRPPRLPRPRPRPYFRPRP,0.0786
5,RRIRQRPPRLPRPRPRPYNQPRP,-0.536
6,RRIRPRPPRLPRPRPRPICPPRP,-0.17
7,RRIRTRPPRLPRPRPRPYMWPRP,-0.233
8,RRIRMRPPRLPRPRPRPHQHPRP,-0.0409
9,RRIRPRPPRLPRPRPRPRYAPRP,0.0891
10,RRIRDRPPRLPRPRPRPNCLPRP,0.0835
11,RRIRERPPRLPRPRPRPFSQPRP,-0.347
12,RRIRPRPPRLPRPRPRPYMIPRP,-0.398
13,RRIRSRPPRLPRPRPRPYEIPRP,-0.0474
14,RRIRTRPPRLPRPRPRPTRFPRP,0.463
15,RRIRPRPPRLPRPRPRPVGWPRP,0.826
16,RRIRWRPPRLPRPRPRPPMGPRP,0.362
17,RRIRGRPPRLPRPRPRPLIEPRP,0.801
18,RRIRYRPPRLPRPRPRPGCGPRP,-0.0402
19,RRIRSRPPRLPRPRPRPGELPRP,0.0807
20,RRIRPRPPRLPRPRPRPEHKPRP,-0.00916
21,RRIRIRPPRLPRPRPRPYMVPRP,-0.377
22,RRIRQRPPRLPRPRPRPKNRPRP,0.0773
23,RRIRMRPPRLPRPRPRPWHIPRP,-0.0015
24,RRIRFRPPRLPRPRPRPCFHPRP,-0.894
25,RRIRNRPPRLPRPRPRPTDYPRP,-0.409

row,Sequence,shrunken log2 fold change
1,RRIRWRPPRLPRPRPRPPEFPRP,0.094
2,RRIRSRPPRLPRPRPRPQSWPRP,0.722
3,RRIRPRPPRLPRPRPRPMNTPRP,-0.0416
4,RRIRKRPPRLPRPRPRPQVKPRP,0.0274
5,RRIRGRPPRLPRPRPRPVWCPRP,0.245
6,RRIRNRPPRLPRPRPRPPNTPRP,-0.0466
7,RRIRVRPPRLPRPRPRPWILPRP,0.000714
8,RRIRPRPPRLPRPRPRPEEEPRP,0.163
9,RRIRQRPPRLPRPRPRPYNRPRP,-0.0882
10,RRIRKRPPRLPRPRPRPTPMPRP,0.555
11,RRIRNRPPRLPRPRPRPGNAPRP,0.0258
12,RRIRWRPPRLPRPRPRPVVYPRP,-0.228
13,RRIRHRPPRLPRPRPRPSCQPRP,-0.31
14,RRIRLRPPRLPRPRPRPMPIPRP,0.301
15,RRIRYRPPRLPRPRPRPFSLPRP,-1.22
16,RRIRWRPPRLPRPRPRPHQQPRP,-0.0485
17,RRIRPRPPRLPRPRPRPDQGPRP,-0.0018
18,RRIRERPPRLPRPRPRPGGKPRP,-0.0276
19,RRIRWRPPRLPRPRPRPQVCPRP,0.189
20,RRIRTRPPRLPRPRPRPPMDPRP,0.15
21,RRIRQRPPRLPRPRPRPCCGPRP,0.0293
22,RRIRPRPPRLPRPRPRPRDHPRP,0.279
23,RRIRIRPPRLPRPRPRPIWIPRP,-0.269
24,RRIRGRPPRLPRPRPRPTQRPRP,0.739
25,RRIRTRPPRLPRPRPRPEPCPRP,0.0427

row,Sequence,shrunken log2 fold change
1,RRIRSRPPRLPRPRPRPLMQPRP,-0.0707
2,RRIRNRPPRLPRPRPRPNWHPRP,-0.111
3,RRIRTRPPRLPRPRPRPGKPPRP,0.0978
4,RRIRSRPPRLPRPRPRPAISPRP,0.153
5,RRIRWRPPRLPRPRPRPQMYPRP,-0.168
6,RRIRARPPRLPRPRPRPSRWPRP,0.388
7,RRIRSRPPRLPRPRPRPRYGPRP,0.0513
8,RRIRQRPPRLPRPRPRPIIWPRP,0.0173
9,RRIRERPPRLPRPRPRPMWHPRP,0.0749
10,RRIRNRPPRLPRPRPRPILIPRP,-0.37
11,RRIRKRPPRLPRPRPRPNGQPRP,0.203
12,RRIRHRPPRLPRPRPRPCYNPRP,-0.427
13,RRIRVRPPRLPRPRPRPEGLPRP,0.0931
14,RRIRMRPPRLPRPRPRPFWRPRP,0.463
15,RRIRLRPPRLPRPRPRPNLGPRP,-0.0507
16,RRIRVRPPRLPRPRPRPWDVPRP,-0.0177
17,RRIRGRPPRLPRPRPRPELAPRP,2
18,RRIRFRPPRLPRPRPRPGCQPRP,-0.157
19,RRIRRRPPRLPRPRPRPWVPPRP,-0.0825
20,RRIRSRPPRLPRPRPRPDKGPRP,-0.108
21,RRIRDRPPRLPRPRPRPKDWPRP,0.601
22,RRIRWRPPRLPRPRPRPRGYPRP,0.209
23,RRIRFRPPRLPRPRPRPCLPPRP,-0.783
24,RRIRCRPPRLPRPRPRPIKQPRP,-0.062
25,RRIRSRPPRLPRPRPRPHDNPRP,-0.308

row,Sequence,shrunken log2 fold change
1,RRIRWRPPRLPRPRPRPYRWPRP,-0.0731
2,RRIRKRPPRLPRPRPRPQSQPRP,0.249
3,RRIRQRPPRLPRPRPRPDPEPRP,-0.202
4,RRIRSRPPRLPRPRPRPCSWPRP,-0.0623
5,RRIRARPPRLPRPRPRPTLEPRP,0.388
6,RRIRTRPPRLPRPRPRPAVHPRP,-0.0614
7,RRIRNRPPRLPRPRPRPWPSPRP,0.0756
8,RRIRQRPPRLPRPRPRPHPEPRP,0.0615
9,RRIRTRPPRLPRPRPRPQKWPRP,-0.147
10,RRIRVRPPRLPRPRPRPVRIPRP,0.337
11,RRIRQRPPRLPRPRPRPRGNPRP,0.106
12,RRIRTRPPRLPRPRPRPCALPRP,-0.0236
13,RRIRLRPPRLPRPRPRPDFVPRP,-0.108
14,RRIRHRPPRLPRPRPRPDTYPRP,-0.24
15,RRIRSRPPRLPRPRPRPRAFPRP,0.304
16,RRIRYRPPRLPRPRPRPYQQPRP,-0.0715
17,RRIRTRPPRLPRPRPRPRTEPRP,0.153
18,RRIRNRPPRLPRPRPRPRRVPRP,0.551
19,RRIRKRPPRLPRPRPRPHQCPRP,-0.0321
20,RRIRPRPPRLPRPRPRPYNAPRP,-0.608
21,RRIRHRPPRLPRPRPRPGRHPRP,-0.0683
22,RRIRKRPPRLPRPRPRPWALPRP,-0.0102
23,RRIRSRPPRLPRPRPRPVGDPRP,0.0704
24,RRIRLRPPRLPRPRPRPGVAPRP,0.529
25,RRIRFRPPRLPRPRPRPHAFPRP,-0.411
